T1: long form of human leptin receptor (human, UniProt P48357 22-1165)
T1 construct: whole, on cells; The radioreceptor assay used a homogenate of the transfected BAF/3 cells; The proliferation assay used live BAF/3 1442-CI 4 cells; also called LEPR; OB-R
T1 sequence (looked up): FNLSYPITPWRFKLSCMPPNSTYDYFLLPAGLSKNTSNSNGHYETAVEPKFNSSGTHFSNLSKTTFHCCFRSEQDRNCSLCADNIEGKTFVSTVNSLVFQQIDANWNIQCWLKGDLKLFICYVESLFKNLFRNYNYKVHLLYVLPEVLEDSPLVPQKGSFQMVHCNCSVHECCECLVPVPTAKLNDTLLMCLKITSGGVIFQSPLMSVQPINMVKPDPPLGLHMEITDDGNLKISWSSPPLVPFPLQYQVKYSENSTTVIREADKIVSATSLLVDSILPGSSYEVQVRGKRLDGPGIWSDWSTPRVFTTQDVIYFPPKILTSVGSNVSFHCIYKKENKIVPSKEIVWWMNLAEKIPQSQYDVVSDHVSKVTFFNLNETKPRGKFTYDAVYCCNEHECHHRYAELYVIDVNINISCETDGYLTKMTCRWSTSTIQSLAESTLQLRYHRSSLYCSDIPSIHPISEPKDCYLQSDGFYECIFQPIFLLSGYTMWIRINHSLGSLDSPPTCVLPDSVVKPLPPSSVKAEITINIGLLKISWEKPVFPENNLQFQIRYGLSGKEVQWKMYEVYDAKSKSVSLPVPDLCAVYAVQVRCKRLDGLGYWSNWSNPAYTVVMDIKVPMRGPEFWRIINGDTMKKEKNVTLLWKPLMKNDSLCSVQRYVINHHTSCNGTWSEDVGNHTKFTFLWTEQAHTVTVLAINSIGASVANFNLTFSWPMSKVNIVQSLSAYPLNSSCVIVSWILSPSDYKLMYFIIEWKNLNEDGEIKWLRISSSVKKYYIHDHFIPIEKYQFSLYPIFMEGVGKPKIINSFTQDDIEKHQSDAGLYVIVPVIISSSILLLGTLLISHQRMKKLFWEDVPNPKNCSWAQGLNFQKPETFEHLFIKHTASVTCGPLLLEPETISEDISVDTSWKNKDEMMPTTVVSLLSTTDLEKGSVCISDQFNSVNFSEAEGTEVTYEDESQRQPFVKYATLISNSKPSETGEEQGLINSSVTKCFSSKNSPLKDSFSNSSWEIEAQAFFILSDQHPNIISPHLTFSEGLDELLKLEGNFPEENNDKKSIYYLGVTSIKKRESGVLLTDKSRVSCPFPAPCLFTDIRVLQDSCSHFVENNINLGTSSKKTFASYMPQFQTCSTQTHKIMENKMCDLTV


Experiments:
[1] = target: T2, recombinant chicken leptin binding domain (chLBD) (chicken); assay: SPR (Biacore 3000), leptin mutant amine-coupled to CM5 chip, soluble chLBD as analyte, 25 C, 1:1 Langmuir fit, mean of 2 experiments
T2 construct: The 1:1 complex with leptin has a predicted mass of 40.5 kDa, so chLBD is about 24.5 kDa
Protocol: (v) Kinetic measurements of leptin and leptin mutants interaction with chLBD. All experiments were performed at 25° C. using surface plasmon resonance (SPR) methodology. The kinetics and equilibrium constants for the interactions between human and chicken recombinant LBD and chicken and hLep were determined using the Biacore 3000 system (Uppsala, Sweden). Leptin (human, ovine or chicken) was immobilized in a flow cell of a research-grade CM5 (carboxymethyldextran) sensor chip using amine-coupling chemistry (Johnsson et al., 1991). The immobilization steps were carried out at a flow rate of 5 μl/min in HBS-EB buffer. The surface was activated for 7 min with a mixture of 0.05 M N-hydroxysuccinimide and 0.2 M N-ethyl-N′(3-dimetylaminopropyl)-carbodiimide hydrochloride. Leptin was injected at a concentration of 50 μg/ml in 10 mM acetate, pH 3.5, until the desired level (1000 resonance units) was achieved. 1 M ethanolamine, pH 8.5, was injected for 7 min to block the remaining activated groups. A control surface was prepared by activating the carboxyl groups and then blocking the activated groups by ethanolamine as described. […] Regeneration of the surface after each interaction was performed by using 10-μl pulse of 10 mM glycine buffer, pH 2. The experiments were controlled by the kinetics Wizard of the Biacore control software, which corrects automatically for refractive index changes and non-specific binding by subtraction of the responses obtained for the control surface from the data obtained for the interactions between LBD and leptin. The obtained binding curves were fitted to the association and dissociation phases at all LBD concentrations simultaneously using Biacore evaluation software. In all cases, the best fit was obtained for a simple bimolecular interaction (Langmuir model).
To further characterize the binding capacities of chLBD with human or ovine leptins and their mutants the surface plasmon resonance (SPR) technique using respective leptin (or leptin mutant) immobilized on a sensor chip by amine coupling and binding of soluble chLBD was employed.

[2] = target: T1, long form of human leptin receptor; assay: radioreceptor competition assay against iodinated leptin, homogenate of BAF/3 cells with long form of human leptin receptor, average of two experiments
Protocol: (vi) Binding assays. Radiolabeled ovine ¹²⁵I-leptin served as a ligand and all other nonlabeled leptins or their mutants as competitors. The experiments were conducted with homogenates of BAF/3 cells stably transfected with the long form of human leptin receptor. The cells were cultured in RPMI 1640 supplemented with 5% FCS in the -presence of IL-3 to minimize leptin receptors down-regulation till concentration of 10⁶ cells/ml was reached. Then the cells were spun and stored at −70° C. […] Each tube contained 150 μl of reaction buffer, 100 μl ¹²⁵I-human leptin (700,000-800,000 cpm) and 100 μl of different leptin solutions (providing 0-5000 ng/tube) in reaction buffer and the reaction was started by addition of 150 μl homogenate. The tubes were incubated for 18 h at room temperature. Then the leptin-receptor complex was precipitated by adding 250 μl of 1% (w/v) bovine immunoglobulin and 500 μl of 20% (w/v) polyethylene glycol. The tubes were thoroughly mixed, incubated for 30 min at 4° C., and centrifuged at 12,000 g for 15 min at 4° C. Then supernatant was carefully aspirated and the precipitates were counted in a γ counter. Human leptin was iodinated according to a protocol previously described for the iodination of hGH (Gertler et al., 1984).
Iodinated human leptin served as the ligand in all competitive experiments and the respective wild-type (WT) human and ovine leptins and their alanine mutants as competitors. Freshly prepared homogenate of BAF/3 cells stably transfected with the long form of human leptin receptor served as receptor source. Homogenate from 1.75×10⁶ cells was used per tube giving 6 to 7% specific binding.

Row | Binder | Kd [1] [nM] | koff [1] [s⁻¹] | kon [1] [M⁻¹ s⁻¹] | IC50 [2] [nM]
1 | ovine leptin L39A/D40A/F41A mutant (ligand, also called L39A/D40A/F41A (ovine)) VSIRKVQDDTKTLIKTIVTRINDISHTQSVSSKQRVTGAAAIPGLHPLLSLSKMDQTLAIYQQILASLPSRNVIQISNDLENLRDLLHLLAASKSCPLPQVRALESLESLGVVLEASLYSTEVVALSRLQGSLQDMLRQLDLSPGC | 13.8 | 0.0025 | 181000 | 2.2
2 | ovine leptin L39A/D40A/F41A/I42A mutant (ligand, also called L39A/D40A/F41A/I42A (ovine)) VSIRKVQDDTKTLIKTIVTRINDISHTQSVSSKQRVTGAAAAPGLHPLLSLSKMDQTLAIYQQILASLPSRNVIQISNDLENLRDLLHLLAASKSCPLPQVRALESLESLGVVLEASLYSTEVVALSRLQGSLQDMLRQLDLSPGC | 29.3 | 0.0032 | 109000 | 1.83
3 | human leptin L39A/D40A/F41A mutant (ligand, Expressed with an extra Met-Ala at the N-terminus, Met removed; also called L39A/D40A/F41A (human)) VPIQKVQDDTKTLIKTIVTRINDISHTQSVSSKQKVTGAAAIPGLHPILTLSKMDQTLAVYQQILTSMPSRNVIRISNDLENLRDLLHVLAFSKSCHLPWASGLETLDSLGGVLEASGYSTEVVALSRLQGSLQDMLWQLDLSPGC | 28.5 | 0.0102 | 358000 | 5.21
4 | human leptin F41A/I42A mutant (ligand, Expressed with an extra Met-Ala at the N-terminus, Met removed; also called F41A/I42A (human)) VPIQKVQDDTKTLIKTIVTRINDISHTQSVSSKQKVTGLDAAPGLHPILTLSKMDQTLAVYQQILTSMPSRNVIRISNDLENLRDLLHVLAFSKSCHLPWASGLETLDSLGGVLEASGYSTEVVALSRLQGSLQDMLWQLDLSPGC | 31.8 | 0.0115 | 362000 | 6.82
5 | human leptin L39A/D40A/F41A/I42A mutant (ligand, Expressed with an extra Met-Ala at the N-terminus, Met removed; also called L39A/D40A/F41A/I42A (human)) VPIQKVQDDTKTLIKTIVTRINDISHTQSVSSKQKVTGAAAAPGLHPILTLSKMDQTLAVYQQILTSMPSRNVIRISNDLENLRDLLHVLAFSKSCHLPWASGLETLDSLGGVLEASGYSTEVVALSRLQGSLQDMLWQLDLSPGC | 50.3 | 0.0068 | 135000 | 5.43

The remaining lines, values ahead:

Row | Kd [1] [nM] | koff [1] [s⁻¹] | kon [1] [M⁻¹ s⁻¹] | IC50 [2] [nM] | Binder
6 | 12.8 | 0.0032 | 250000 | 3.44 | ovine leptin F41A/I42A mutant (ligand, also called F41A/I42A (ovine)) VSIRKVQDDTKTLIKTIVTRINDISHTQSVSSKQRVTGLDAAPGLHPLLSLSKMDQTLAIYQQILASLPSRNVIQISNDLENLRDLLHLLAASKSCPLPQVRALESLESLGVVLEASLYSTEVVALSRLQGSLQDMLRQLDLSPGC
7 | 24 | 0.0057 | 237000 | 1.83 | ovine leptin L39A/D40A mutant (ligand, also called L39A/D40A (ovine)) VSIRKVQDDTKTLIKTIVTRINDISHTQSVSSKQRVTGAAFIPGLHPLLSLSKMDQTLAIYQQILASLPSRNVIQISNDLENLRDLLHLLAASKSCPLPQVRALESLESLGVVLEASLYSTEVVALSRLQGSLQDMLRQLDLSPGC
8 | 22.9 | 0.0125 | 545000 | 4.16 | human leptin L39A/D40A mutant (ligand, also called L39A/D40A (human)) VPIQKVQDDTKTLIKTIVTRINDISHTQSVSSKQKVTGAAFIPGLHPILTLSKMDQTLAVYQQILTSMPSRNVIRISNDLENLRDLLHVLAFSKSCHLPWASGLETLDSLGGVLEASGYSTEVVALSRLQGSLQDMLWQLDLSPGC

Reference: patent US20060154859A1 (YISSUM RESEARCH DEVELOPMENT COMPANY OF THE HEBREW …, published 2006)
